The target in assay [1] is Recombinant Rhesus macaque VEGFR2/KDR Protein, His tag (rhesus macaque). Briefly: ELISA, rhesus VEGFR2-his coated, anti-human Fc-HRP.
Assay [2] addresses Recombinant Human VEGFR2/KDR Protein, His tag (hVEGFR2-his) (human) (UniProt P35968). The assay can be described thus: ELISA, human VEGFR2-his coated, anti-human Fc-HRP. In general terms: In an ELISA, binding on a coated surface is turned into a signal by an enzyme label.
The target of assay [3] is Recombinant Rhesus macaque VEGFR2/KDR Protein, His tag (rhesus macaque). Briefly: ELISA, rhesus VEGFR2-his coated, anti-human Fc-HRP. This is another data set of the same source.
The target in assay [4] is Recombinant Human VEGFR2/KDR Protein, His tag (hVEGFR2-his) (human) (UniProt P35968). Briefly: ELISA, hVEGFR2-his coated (0.5 ug/ml), anti-human Fc-HRP.
Assay [5] concerns the target human VEGFR2 on HUVEC cells (human) (UniProt P35968). The assay can be described thus: flow cytometry on HUVEC cells, MFI, anti-human IgG (H+L)-PE.
Assay [6] has the same target. The assay can be described thus: flow cytometry on HUVEC cells, percent shifted cells (Shift %), anti-human IgG-PE. (Flow cytometry measures light scatter and fluorescence of single cells or particles in a stream.)
Assay [7] concerns the target Recombinant Human VEGFR2/KDR Protein, His tag (hVEGFR2-his) (human) (UniProt P35968). The assay can be described thus: competition ELISA: hVEGFR2-his coated (1 ug/ml), antibody titrated, then 0.3 ug/ml hVEGF-A added and bound VEGF-A detected; blocked ligand hVEGF-A.
For assay [8] the target is unchanged. Briefly: competition ELISA: VEGF-A coated (0.25 ug/ml), antibody mixed with VEGFR2, detection with mouse anti-VEGFR2 serum and anti-mouse Fc-HRP; blocked ligand VEGF-A.
Assay [9] shares this target. The assay can be described thus: competition ELISA: VEGF-A coated (0.25 ug/ml), antibody titrated together with 1 ug/ml human VEGFR2, detection with mouse anti-VEGFR2 serum and anti-mouse Fc-HRP; blocked ligand VEGF-A.
The target of assay [10] is Recombinant Rhesus macaque VEGFR2/KDR Protein, His tag (rhesus macaque). The assay can be described thus: competition ELISA: VEGF-A coated (0.25 ug/ml), antibody titrated together with 1 ug/ml rhesus VEGFR2, detection with mouse anti-VEGFR2 serum and anti-mouse Fc-HRP; blocked ligand VEGF-A.

Read-outs that look alike come from different tables or passages of the source.

The text below walks through data of patent US20240209099A1.

Chain of Recombinant Rhesus macaque VEGFR2/KDR Protein, His tag (rhesus macaque) (chain, as listed by the source): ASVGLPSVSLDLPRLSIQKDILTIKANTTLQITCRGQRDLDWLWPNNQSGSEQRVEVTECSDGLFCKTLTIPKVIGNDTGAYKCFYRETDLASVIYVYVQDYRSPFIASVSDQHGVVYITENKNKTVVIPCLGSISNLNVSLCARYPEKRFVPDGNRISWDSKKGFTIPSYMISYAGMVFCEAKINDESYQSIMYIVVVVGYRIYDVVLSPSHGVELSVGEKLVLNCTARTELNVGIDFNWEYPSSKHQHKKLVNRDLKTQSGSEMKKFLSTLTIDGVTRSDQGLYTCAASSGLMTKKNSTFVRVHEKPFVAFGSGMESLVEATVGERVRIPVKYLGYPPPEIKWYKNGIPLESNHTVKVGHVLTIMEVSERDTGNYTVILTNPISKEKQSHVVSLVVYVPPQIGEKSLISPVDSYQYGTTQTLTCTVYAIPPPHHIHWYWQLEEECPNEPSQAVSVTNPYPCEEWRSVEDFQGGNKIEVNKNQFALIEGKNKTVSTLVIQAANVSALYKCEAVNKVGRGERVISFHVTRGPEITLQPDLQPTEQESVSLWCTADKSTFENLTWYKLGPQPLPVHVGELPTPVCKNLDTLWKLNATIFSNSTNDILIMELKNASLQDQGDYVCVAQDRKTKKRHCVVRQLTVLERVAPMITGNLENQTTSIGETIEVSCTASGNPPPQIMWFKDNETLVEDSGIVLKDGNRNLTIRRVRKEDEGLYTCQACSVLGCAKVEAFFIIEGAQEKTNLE
Chain of Recombinant Human VEGFR2/KDR Protein, His tag (hVEGFR2-his) (human) (P35968 other isoform, or with tags, fused parts or gaps): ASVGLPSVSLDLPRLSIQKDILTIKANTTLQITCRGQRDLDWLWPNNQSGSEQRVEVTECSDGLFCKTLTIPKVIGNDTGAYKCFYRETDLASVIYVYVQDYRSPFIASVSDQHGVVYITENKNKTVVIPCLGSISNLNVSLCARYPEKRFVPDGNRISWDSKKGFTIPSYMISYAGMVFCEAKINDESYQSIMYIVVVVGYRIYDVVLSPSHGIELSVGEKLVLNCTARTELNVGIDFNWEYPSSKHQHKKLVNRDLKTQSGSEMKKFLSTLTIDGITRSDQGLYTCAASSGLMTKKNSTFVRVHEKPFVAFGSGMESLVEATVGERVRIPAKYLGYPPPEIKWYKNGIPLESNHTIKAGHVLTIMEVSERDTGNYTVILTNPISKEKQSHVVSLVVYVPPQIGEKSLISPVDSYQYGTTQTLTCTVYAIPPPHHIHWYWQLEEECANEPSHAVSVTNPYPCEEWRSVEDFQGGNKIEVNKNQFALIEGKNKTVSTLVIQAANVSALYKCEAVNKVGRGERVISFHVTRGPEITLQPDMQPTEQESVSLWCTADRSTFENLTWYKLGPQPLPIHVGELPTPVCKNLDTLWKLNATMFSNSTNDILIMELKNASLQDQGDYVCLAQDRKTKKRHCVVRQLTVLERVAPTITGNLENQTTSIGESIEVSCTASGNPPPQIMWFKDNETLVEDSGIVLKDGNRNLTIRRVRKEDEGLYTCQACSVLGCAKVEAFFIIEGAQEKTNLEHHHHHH
Chain of human VEGFR2 on HUVEC cells (human) (P35968 20-1356 V297I/Q472H limits assumed): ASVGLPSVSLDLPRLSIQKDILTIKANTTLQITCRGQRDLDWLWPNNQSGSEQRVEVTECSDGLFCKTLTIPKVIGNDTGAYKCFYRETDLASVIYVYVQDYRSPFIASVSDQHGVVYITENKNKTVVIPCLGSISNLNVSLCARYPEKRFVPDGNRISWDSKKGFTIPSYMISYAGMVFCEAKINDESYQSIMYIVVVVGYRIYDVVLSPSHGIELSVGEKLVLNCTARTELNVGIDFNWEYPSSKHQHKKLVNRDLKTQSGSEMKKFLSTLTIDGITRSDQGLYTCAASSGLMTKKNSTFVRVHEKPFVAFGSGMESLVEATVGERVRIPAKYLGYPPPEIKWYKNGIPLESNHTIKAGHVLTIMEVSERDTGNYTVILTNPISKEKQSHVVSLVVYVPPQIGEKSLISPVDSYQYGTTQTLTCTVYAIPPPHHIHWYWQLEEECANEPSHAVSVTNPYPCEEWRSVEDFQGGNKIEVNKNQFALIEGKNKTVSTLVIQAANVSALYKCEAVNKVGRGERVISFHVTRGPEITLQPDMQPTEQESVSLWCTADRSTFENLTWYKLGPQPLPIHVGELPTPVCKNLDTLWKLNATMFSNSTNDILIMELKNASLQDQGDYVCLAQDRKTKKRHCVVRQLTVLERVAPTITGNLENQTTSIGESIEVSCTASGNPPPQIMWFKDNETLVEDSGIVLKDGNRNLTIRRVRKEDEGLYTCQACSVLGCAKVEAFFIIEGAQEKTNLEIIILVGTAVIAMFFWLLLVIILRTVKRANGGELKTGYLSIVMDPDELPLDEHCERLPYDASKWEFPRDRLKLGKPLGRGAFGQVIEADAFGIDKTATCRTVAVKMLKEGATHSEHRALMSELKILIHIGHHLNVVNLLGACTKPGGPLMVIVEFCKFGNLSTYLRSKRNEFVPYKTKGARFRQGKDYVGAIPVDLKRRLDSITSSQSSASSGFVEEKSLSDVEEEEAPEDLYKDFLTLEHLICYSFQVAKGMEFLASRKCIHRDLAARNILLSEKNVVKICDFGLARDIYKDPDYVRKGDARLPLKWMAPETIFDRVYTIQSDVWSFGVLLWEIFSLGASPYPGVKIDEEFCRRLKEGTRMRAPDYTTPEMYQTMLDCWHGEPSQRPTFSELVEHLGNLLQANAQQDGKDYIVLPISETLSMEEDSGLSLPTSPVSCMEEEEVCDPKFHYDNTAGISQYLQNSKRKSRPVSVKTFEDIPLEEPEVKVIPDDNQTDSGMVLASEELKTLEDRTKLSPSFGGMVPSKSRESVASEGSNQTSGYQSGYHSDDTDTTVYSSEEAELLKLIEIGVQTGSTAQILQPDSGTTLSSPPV

A word on the EC50: it is the concentration that produces a half-maximal response. By EC50 (read off the curve) is commonly meant the concentration that produces a half-maximal response. As usually defined, the IC50 is the midpoint of a concentration-inhibition curve. 1121B (benchmark antibody, Ramucirumab): the EC50 in assay [1] was 8.8 ng/mL; in assay [2], 8.71 ng/mL; in assay [3], 9.19 ng/mL; in assay [4], 9.26 ng/mL; in [6], 0.0682 µg/mL. Besides, the EC50 (read off the curve) in assay [5] was 0.1 µg/mL. The concentration for half-maximal inhibition (IC50) in assay [7] came to 0.0285 µg/mL; in assay [8], 0.126 µg/mL; in [9], 0.849 µg/mL; in assay [10], 0.805 µg/mL.
